Results: patent publication US20230128075A1
Numbering of substitutions follows the chain as printed.

B1: h77A-1.52 (antibody, V domains shown)
VH: QIQLVQSGVEVKKPGASVKVSCKASGYIFTNYGMNWVRQAPGQGLEWMGWINTYTGEPRYADDFKGRFTFTTDTSTSTAYMELRSLRSDDTAVYFCARYDHRMDYWGQGTLVTVSS
VL: EIVLTQSPDSLAVSLGERATINCKSSQSLLNSGTRKNYLAWYQQKAGQSPKLLIYWTSTRESGVPDRFSGSGSGTDFTLTIDSLQAEDVAVYYCKQSYTLYTFGGGTKVEIK
B2: h77A-1.54 (antibody, V domains shown)
VH: B1 VH with V9A, I28T, N31K, R59K, A61G
VL: B1 VL
B3: h77A-1.79 (antibody, V domains shown)
VH: B1 VH with V9A, I28T, N31K
VL: B1 VL with A46P, T99N
B4: h77A-1.80 (antibody, V domains shown)
VH: B1 VH with V9A, I28T, R59K, R102V
VL: B1 VL with A40S, A46P, L53I

Target: HSP70 (antigen; source and nucleotide state not stated) (Homo sapiens (Human)) (UniProt P0DMV8)
Assay: biosensor, anti-human Fc capture, antigen 100 nM

Chain of HSP70 (antigen; source and nucleotide state not stated) (Homo sapiens (Human)) (P0DMV8 whole entry): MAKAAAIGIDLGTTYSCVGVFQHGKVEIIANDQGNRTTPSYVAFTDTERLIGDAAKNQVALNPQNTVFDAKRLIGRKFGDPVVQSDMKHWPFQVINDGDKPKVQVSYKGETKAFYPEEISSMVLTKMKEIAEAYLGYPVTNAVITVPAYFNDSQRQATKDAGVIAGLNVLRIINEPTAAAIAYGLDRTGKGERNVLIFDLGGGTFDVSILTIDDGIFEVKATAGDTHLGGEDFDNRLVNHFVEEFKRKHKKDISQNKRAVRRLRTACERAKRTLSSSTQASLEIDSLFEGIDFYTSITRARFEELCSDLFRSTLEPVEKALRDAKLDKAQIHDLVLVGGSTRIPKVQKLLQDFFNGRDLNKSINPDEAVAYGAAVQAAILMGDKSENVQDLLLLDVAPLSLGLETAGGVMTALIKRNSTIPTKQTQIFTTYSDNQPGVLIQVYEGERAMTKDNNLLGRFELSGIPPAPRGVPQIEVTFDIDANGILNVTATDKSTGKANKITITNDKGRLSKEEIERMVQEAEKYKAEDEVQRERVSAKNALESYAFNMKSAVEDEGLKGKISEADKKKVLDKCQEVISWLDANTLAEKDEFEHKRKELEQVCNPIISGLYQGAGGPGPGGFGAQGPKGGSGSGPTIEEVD

Binder	% Diss [%]	X = 1495 [nM]	X = 610 [nM]
B1	-115	0.0133	
B2	-41.2		0.0068
B3	-37.4		0.0131
B4	-8.84		0.0181
